Key:
[1] = target: T1, recombinant human tropoelastin (hTE) (Sigma-Aldrich), P15502
T1 chain: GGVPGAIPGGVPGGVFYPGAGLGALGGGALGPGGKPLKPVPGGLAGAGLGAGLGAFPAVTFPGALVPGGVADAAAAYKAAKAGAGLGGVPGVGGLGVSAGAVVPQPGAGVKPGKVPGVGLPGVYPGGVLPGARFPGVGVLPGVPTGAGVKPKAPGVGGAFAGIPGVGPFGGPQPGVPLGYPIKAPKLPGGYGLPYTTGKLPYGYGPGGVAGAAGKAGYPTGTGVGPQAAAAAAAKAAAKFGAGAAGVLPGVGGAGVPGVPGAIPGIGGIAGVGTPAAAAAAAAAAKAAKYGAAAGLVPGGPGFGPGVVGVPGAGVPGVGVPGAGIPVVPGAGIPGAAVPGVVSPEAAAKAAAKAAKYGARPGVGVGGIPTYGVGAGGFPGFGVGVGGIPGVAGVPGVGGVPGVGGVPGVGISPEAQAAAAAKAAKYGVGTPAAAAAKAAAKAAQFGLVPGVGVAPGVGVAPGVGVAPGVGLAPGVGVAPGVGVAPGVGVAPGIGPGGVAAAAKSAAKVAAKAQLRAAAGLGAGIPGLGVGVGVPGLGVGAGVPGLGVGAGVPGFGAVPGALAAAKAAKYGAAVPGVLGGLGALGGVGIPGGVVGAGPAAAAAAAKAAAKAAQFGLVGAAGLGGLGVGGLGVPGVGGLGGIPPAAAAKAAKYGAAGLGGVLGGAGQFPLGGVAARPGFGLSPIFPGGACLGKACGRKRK

[2] = target: T2, Elactiv′ polypeptide (polypeptide derived from tropoelastin, Cys-Flag-tagged)
T2 chain: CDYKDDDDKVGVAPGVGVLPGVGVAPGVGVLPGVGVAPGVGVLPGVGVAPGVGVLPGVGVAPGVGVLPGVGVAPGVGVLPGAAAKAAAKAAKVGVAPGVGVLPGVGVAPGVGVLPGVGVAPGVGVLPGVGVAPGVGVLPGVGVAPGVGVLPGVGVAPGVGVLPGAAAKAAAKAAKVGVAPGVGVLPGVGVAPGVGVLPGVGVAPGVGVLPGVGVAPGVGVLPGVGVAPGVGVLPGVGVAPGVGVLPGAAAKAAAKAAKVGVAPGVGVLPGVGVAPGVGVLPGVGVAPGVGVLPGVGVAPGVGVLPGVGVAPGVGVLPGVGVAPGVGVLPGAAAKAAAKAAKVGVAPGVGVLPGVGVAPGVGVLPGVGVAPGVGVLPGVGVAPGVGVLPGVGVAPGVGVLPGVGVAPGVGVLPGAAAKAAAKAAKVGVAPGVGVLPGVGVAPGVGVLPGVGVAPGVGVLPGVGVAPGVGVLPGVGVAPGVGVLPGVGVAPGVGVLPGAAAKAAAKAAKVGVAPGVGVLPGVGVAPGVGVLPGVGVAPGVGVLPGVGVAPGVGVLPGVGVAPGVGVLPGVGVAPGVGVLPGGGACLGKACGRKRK

B1: recombinant human MMP-12 (protein)
chain: GPVWRKHYITYRINNYTPDMNREDVDYAIRKAFQVWSNVTPLKFSKINTGMADILVVFARGAHGDFHAFDGKGGILAHAFGPGSGIGGDAHFDEDEFWTTHSGGTNLFLTAVHEIGHSLGLGHSSDPKAVMFPTYKYVDINTFRLSADDIRGIQSLYGDPKENQRLPNPDNSEPALCDPNLSFDAVTTVGNKIFFFKDRFFWLKVSERPKTSVNLISSLWPTLPSGIEAAYEIEARNQVFLFKDDKYWLISNLRPEPNYPKSIHSFGFPNFVKKIDAAVFNPRFYRTYFFVDNQYWRYDERRQMMDPGYPKLITKNFQGIGPKIDAVFYSKNKYYYFFQGSNQFEYDFLLQRITKTLKSNSWFGC
Question: For B1, which “kinetics of degradation by rhMMP-12, Western blot” value [1] is on record?
Answer: The value was “Elactiv′ is progressively degraded by MMP-12, but to a lesser extent than human tropoelastin”.

Question: What about the “kinetics of degradation by rhMMP-12, Western blot” value [2] of the same protein?
Answer: Its value is “Elactiv′ is progressively degraded by MMP-12, but to a lesser extent than human tropoelastin”.

Reference: patent publication US20190169269
